Numbering of substitutions follows the chain as printed. Numbers in names are those of the source. Read-outs that look alike come from different tables or passages of the source. Primed or numbered codes have the meaning given here. * marks the point of attachment. Biotin = O=C1N[C@H]2[C@H](CS[C@H]2CCCCC(=O)*)N1; PEG4′ = not defined here
T1: 116-126
T1 construct: also called alphaSyn 116-126
T1 peptide: {Biotin-PEG4′}-MPVDPDNEAYE-NH2

T2: 125-135
T2 peptide: {Biotin-PEG4′}-YEMPSEEGYQD-NH2

T3: 128-138
T3 peptide: {Biotin-PEG4′}-PSEEGYQDYEP-NH2

T4: 129-139
T4 peptide: {Biotin-PEG4′}-SEEGYQDYEPE-NH2

T5: 130-140
T5 construct: also called alphaSyn 130-140
T5 peptide: {Biotin-PEG4′}-EEGYQDYEPEA-NH2

T6: 117-127
T6 construct: also called alphaSyn 117-127
T6 peptide: {Biotin-PEG4′}-PVDPDNEAYEM-NH2

T7: 118-128
T7 construct: also called alphaSyn 118-128
T7 peptide: {Biotin-PEG4′}-VDPDNEAYEMP-NH2

T8: 119-129
T8 peptide: {Biotin-PEG4′}-DPDNEAYEMPS-NH2

T9: 120-130
T9 construct: also called alphaSyn 120-130
T9 peptide: {Biotin-PEG4′}-PDNEAYEMPSE-NH2

T10: 121-131
T10 construct: also called alphaSyn 121-131
T10 peptide: {Biotin-PEG4′}-DNEAYEMPSEE-NH2

T11: 122-132
T11 construct: also called alphaSyn 122-132
T11 peptide: {Biotin-PEG4′}-NEAYEMPSEEG-NH2

T12: 123-133
T12 peptide: {Biotin-PEG4′}-EAYEMPSEEGY-NH2

T13: 124-134
T13 construct: also called alphaSyn 124-134
T13 peptide: {Biotin-PEG4′}-AYEMPSEEGYQ-NH2

B1: 44B11 (antibody, V domains shown)
VH: EVQLVESGGGLIQPGGSLRLSCAASGFTVSSKYMSWVRQAPGKGLEWVSVMYSGGRRYYADSVKGRFTISRDNSKNTLYLQMNSLRAEDTAVYYCARGDRGDYWGQGTLVTVSS
VL: EIVLTQSPATLSLSPGERATLSCRASQSVSSYLAWYQQKPGQAPRLLIYDASNRATGIPARFSGSGSGTDFTLTISSLEPEDFAVYYCQQRSNWPITFGQGTRLEIK
B2: 11H11-1 (antibody, V domains shown)
VH: EVQLVQSGGGLVHPGGSLRLSCAGSGFTFSSYAMHWVRQAPGKGLEWVSAIGTGGGTYYADSVKGRFTISRDNAKNSLYLQMNSLRAEDMAVYYCARGNWEFDYWGQGTLVTVSS
VL: not shown
notes: shares its VH with 11H11-2
B3: 15A5 (antibody, V domains shown)
VH: QVQLQESGPGLVKPSETLSLTCTVSGGSVSSGSYYWCWIRQPPGKGLEWIGYIYYSGRTKYNPSLKSRVTISVDTSKNQFSLKLSSVTAADTAVYYCARERGRFDYWGQGTLVTVSS
VL: not shown
B4: 7A10-hIgG1.3f (antibody, V domains shown)
VH: B3 VH with S33R, C37S, A98T, R103Y, F104L
VL: not shown
B5: 36A3 (antibody, V domains shown)
VH: B3 VH with C37S, K77R, R103W, F104L, Y106P
VL: not shown
B6: 7A10-Vh-R56S-K58N-T93A-IgG1.3f (antibody, name in Kabat numbering, V domains shown)
VH: B3 VH with S33R, C37S, R58S, K60N, R103Y, F104L
VL: not shown
B7: 7A10 (antibody, V domains shown)
VH: B3 VH with S33R, C37S, A98T, R103Y, F104L
VL: not shown
B8: 21A3 (antibody, V domains shown)
VH: B3 VH with S31N, G32R, S33N, C37S, L84V
VL: not shown
notes: also called 21A03
B9: 7A10-Vh-K58Y-T93A-hHC-IgG1.3f (antibody, name in Kabat numbering, V domains shown)
VH: B3 VH with S33R, C37S, K60Y, R103Y, F104L
VL: not shown
B10: 7A10-Vh-T93A-hHC-IgG1.3f (antibody, V domains shown)
VH: B3 VH with S33R, C37S, R103Y, F104L
VL: not shown
B11: 21A3-hIgG1.3f (antibody, V domains shown)
VH: B3 VH with S31N, G32R, S33N, C37S, L84V
VL: not shown
B12: 7A10-Vh-R56S-T93A-hHC-IgG1.3f (antibody, name in Kabat numbering, V domains shown)
VH: B3 VH with S33R, C37S, R58S, R103Y, F104L
VL: not shown
B13: 21A3-Vh-V82L-hHC-IgG1.3f (antibody, V domains shown)
VH: B3 VH with S31N, G32R, S33N, C37S
VL: not shown

Key:
[1] = biological target: PFF used as inducer in the immunodepletion assay of Example 10 (human, UniProt P37840 1-140); experiment: cell-based or functional assay
[2] = biological target: T14, α-synuclein inducing species in brain lysates of MSA patients (12-18, 01-03, 04-51) (human, UniProt P37840 1-140); experiment: cell-based or functional assay
[3] = biological target: T14, α-synuclein inducing species in brain …; experiment: cell-based or functional assay; remark: listed apart in the source
[4] = biological target: T14, α-synuclein inducing species in brain …; experiment: cell-based or functional assay; remark: listed apart in the source
[5] = biological target: T1, 116-126; experiment: 1-sided ELISA on plate-bound biotinylated peptide, luminescence (CPS)
[6] = biological target: T2, 125-135; experiment: as above
[7] = biological target: T3, 128-138; experiment: as above
[8] = biological target: T4, 129-139; experiment: as above
[9] = biological target: T5, 130-140; experiment: as above
[10] = biological target: T6, 117-127; experiment: as above
[11] = biological target: T7, 118-128; experiment: as above
[12] = biological target: T8, 119-129; experiment: as above
[13] = biological target: T9, 120-130; experiment: as above
[14] = biological target: T10, 121-131; experiment: as above
[15] = biological target: T11, 122-132; experiment: as above
[16] = biological target: T12, 123-133; experiment: as above
[17] = biological target: T13, 124-134; experiment: as above
[18] = biological target: rat αSyn 111-140 peptide (rat, C-terminal amide (NH2)); experiment: solution competition ELISA, free antibody captured on PFF plate; column Rat 111-140 (nM)
[19] = biological target: mouse αSyn 111-140 peptide (mouse, C-terminal amide (NH2)); experiment: solution competition ELISA, free antibody captured on PFF plate; column Mouse 111-140 (nM)
[20] = biological target: T15, full-length human recombinant wild-type β-synuclein monomer (human, UniProt Q16143 1-134); experiment: competition ELISA: antibody pre-incubated with titrated synuclein species in solution; unbound antibody captured on WT PFF-coated plate (CPS)
T15 construct: mature; also called human βSyn monomer
T15 sequence (Q16143 whole entry): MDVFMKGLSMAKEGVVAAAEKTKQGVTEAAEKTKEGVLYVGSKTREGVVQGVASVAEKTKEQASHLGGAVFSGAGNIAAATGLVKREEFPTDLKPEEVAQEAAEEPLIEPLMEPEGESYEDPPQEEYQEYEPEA

[21] = biological target: T16, full-length human recombinant wild-type γ-synuclein monomer (human, UniProt O76070 1-127); experiment: as above
T16 construct: mature; also called human γSyn monomer

[22] = biological target: T15, full-length human recombinant wild-type …; experiment: as above; remark: listed apart in the source
[23] = biological target: T16, full-length human recombinant wild-type …; experiment: as above; remark: listed apart in the source
[24] = biological target: T14, α-synuclein inducing species in brain …; experiment: cell-based or functional assay; remark: listed apart in the source
[25] = biological target: T16, full-length human recombinant wild-type …; experiment: competition ELISA: antibody pre-incubated with titrated synuclein species in solution; unbound antibody captured on WT PFF-coated plate (CPS); remark: listed apart in the source
[26] = biological target: T15, full-length human recombinant wild-type …; experiment: as above; remark: listed apart in the source
[27] = biological target: T16, full-length human recombinant wild-type …; experiment: as above; remark: listed apart in the source

| Binder | IC50 (nM), immunodepletion of pS129-inducing activity from PFF [1] | IC50 (nM), immunodepletion of pS129-inducing activity from MSA 12-18 lysate [2] | IC50 (nM), immunodepletion of pS129-inducing activity from MSA 01-03 lysate [3] | IC50 (nM), immunodepletion of pS129-inducing activity from MSA 04-51 lysate [4] | IC50 (nM), immunodepletion of pS129-inducing activity from MSA 12-18 lysate [24] | other results |
| --- | --- | --- | --- | --- | --- | --- |
| B1 | 0.028 nM | 2.21 nM | 2.7 nM | 0.41 nM | – | Fold Antibody 1, immunodepletion of PFF [1]: 1.1 fold; Fold Antibody 1, immunodepletion of MSA 12-18 lysate [2]: 2.5 fold; Fold Antibody 1, immunodepletion of MSA 01-03 lysate [3]: 0.9 fold; Fold Antibody 1, immunodepletion of MSA 04-51 lysate [4]: 1.1 fold; binding result [5]: no binding; binding result [6]: no binding; binding result [7]: no binding; binding result [8]: binds; binding result [9]: binds; binding result [10]: no binding; binding result [11]: no binding; binding result [12]: no binding; binding result [13]: no binding; binding result [14]: no binding; binding result [15]: no binding; binding result [16]: no binding; binding result [17]: no binding |
| B2 | 0.066 nM | 0.76 nM | 2.6 nM | 0.15 nM | – | EC50 [18]: 5.71 µM; EC50 [19]: 5.75 µM; binding result [20]: binds; binding result [21]: binds |
| B3 | 0.042 nM | 0.61 nM | 0.59 nM | 0.12 nM | – | binding result [22]: binds; binding result [23]: binds |
| B4 | – | – | – | – | 0.52 nM | – |
| B5 | 0.057 nM | 0.63 nM | 0.55 nM | 0.17 nM | – | – |
| B6 | – | – | – | – | 51 nM | – |
| B7 | 0.018 nM | 0.39 nM | 0.28 nM | 0.04 nM | – | binding result [25]: binds |
| B8 | 0.061 nM | 0.16 nM | 0.37 nM | 0.05 nM | – | binding result [26]: binds; binding result [27]: binds |
| B9 | – | – | – | – | 4.65 nM | – |
| B10 | – | – | – | – | 0.66 nM | – |
| B11 | – | – | – | – | 0.19 nM | – |
| B12 | – | – | – | – | 9 nM | – |
| B13 | – | – | – | – | 0.11 nM | – |

From patent publication US20210221878A1 (Bristol-Myers Squibb, published 2021)
